Series [1] deals with KS-MAT^S581A didomain of murine FAS (functional MAT knockout) (murine).
Series [2] deals with CC(=O)SCCNC(=O)CCNC(=O)[C@H](O)C(C)(C)COP(=O)(O)OP(=O)(O)OC[C@H]1O[C@@H](n2cnc3c(N)ncnc32)[C@H](O)[C@@H]1OP(=O)(O)O. Description: purified protein. To be noted: NADPH substrates likely compete in the malonyl-acetyl transferase (MAT) binding pocket.

The Km is the concentration of substrate that gives half-maximal velocity.

With “decanoyl-acyl carrier protein (ACP) (domain or fragment)”, the Inhibition constant K i (substrate inhibition on titration of decanoyl-ACP at constant metmal-ACP; KS elongation activity by the enzyme-coupled MabA assay, apparent constant) in series [1] was found to be 270 µM.
Turning to “metazoan fatty acid synthase (mFAS), murine FAS (Mus musculus)”, the Km in series [2] turned out to be 69 ± 12 µM.
